Source: article PMC8741639 (Structure (London, England : 1993), 2021)

Target: the molecule itself
Test: cryo-EM structure

B1: AcrA, periplasmic membrane fusion protein of the AcrAB-TolC efflux pump (natural protein)
chain: CDDKQAQQGGQQMPAVGVVTVKTEPLQITTELPGRTSAYRIAEVRPQVSGIILKRNFKEGSDIEAGVSLYQIDPATYQATYDSAKGDLAKAQAAANIAQLTVNRYQKLLGTQYISKQEYDQALADAQQANAAVTAAKAAVETARINLAYTKVTSPISGRIGKSNVTEGALVQNGQATALATVQQLDPIYVDVTQSSNDFLRLKQELANGTLKQENGKAKVSLITSDGIKFPQDGTLEFSDVTVDQTTGSITLRAIFPNPDHTLLPGMFVRARLEEGLNPNAILVPQQGVTRTPRGDATVLVVGADDKVETRPIVASQAIGDKWLVTEGLKAGDRVVISGLQKVRPGVQVKAQEVTADNNQQAASGAQPEQSKS
In the case of B1, the “stoichiometry N” value is reported as 6.
